Measured values reported in US20180125995A1, “ANTI-STAPHYLOCOCCUS AUREUS ANTIBODY RIFAMYCIN CONJUGATES AND USES THEREOF” (priority 2014, published 2018).
≈ marks a conversion by molar mass, not a printed value.

How the values were obtained:
[1] = tested on: MRSA (NRS384 strain of USA300); experiment: MIC determination for extracellular bacteria in liquid culture; assay type: cell-based; settings: Staphylococcus aureus, read-out: Extracellular MRSA MIC
Experimental: The MIC for extracellular bacteria was determined by preparing serial 2-fold dilutions of the antibiotic in Tryptic Soy Broth. Dilutions of the antibiotic were made in quadruplicate in 96 well culture dishes. MRSA (NRS384 strain of USA300) was taken from an exponentially growing culture and diluted to 1×10^4 CFU/mL. The bacteria was cultured in the presence of antibiotic for 18-24 hours with shaking at 37° C. and bacterial growth was determined by reading the Optical Density (OD) at […]. The MIC was determined to be the dose of antibiotic that inhibited bacterial growth by >90%.
(§1) For extracellular bacteria, MRSA was cultured overnight in Tryptic Soy Broth, and the MIC was determined to be the minimum antibiotic dose that prevented growth. For intracellular bacteria, murine peritoneal macrophages were infected with MRSA and cultured in the presence of gentamycin to kill extracellular bacteria. Test antibiotics were added to the culture medium one day post infection, and the total number of surviving intracellular bacteria was determined 24 hours later. The expected serum concentrations for clinically relevant antibiotics was reported in Antimicrobial Agents, Andre Bryskier. ASM Press, Washington D.C. (2005).

[2] = tested on: MRSA sequestered inside mouse peritoneal macrophages; experiment: MIC determination for intracellular bacteria sequestered inside murine macrophages; assay type: cell-based, Staphylococcus aureus
Experimental: Intracellular MIC was determined on bacteria that were sequestered inside mouse peritoneal macrophages (see below for generation of murine peritoneal macrophages). Macrophages were plated in 24 well culture dishes at a density of 4×10^5 cells/mL and infected with MRSA at a ratio of 10-20 bacteria per macrophage. Macrophage cultures were maintained in growth media supplemented with 50 ug/mL of gentamycin (an antibiotic that is active only on extracellular bacteria) to inhibit the growth of extracellular bacteria and test antibiotics were added to the growth media 1 day after infection. The survival of intracellular bacteria was assessed 24 hours after addition of the antibiotics. Macrophages were lysed with Hanks Buffered Saline Solution supplemented with 0.1% Bovine Serum Albumin and 0.1% Triton-X, and serial dilutions of the lysate were made in Phosphate Buffered Saline solution containing 0.05% Tween-20. The number of surviving intracellular bacteria was determined by plating on Tryptic Soy Agar plates with 5% defibrinated sheep blood.
as §1

MRSA = experiment: In vitro survival of MRSA in presence of vancomycin (planktonic, on MG63 osteoblasts, inside peritoneal cells); assay type: cell-based, Staphylococcus aureus
Experimental: Further analyses in vitro addressed more quantitatively the extent to which intracellular survival facilitates antibiotic evasion. To this end, MG63 osteoblasts were infected with either planktonic MRSA or intracellular MRSA, in the presence of vancomycin.
Infection of osteoblasts or HBMEC. MG63 cell line was obtained from ATCC (CRL-1427) and maintained in RPMI 1640 tissue culture media supplemented with 10 mM Hepes and 10% Fetal Calf Serum (RPMI-10). HBMEC cells (Catalog #1000) and ECM media (catalog#1001) were obtained from SciencCell Research Labs (Carlsbad, Calif.). Cells were plated in 24 well tissue culture plates and cultured to obtain a confluent layer. On the day of the experiment, the cells were washed once in RPMI (without supplements). MRSA or infected peritoneal cells were diluted in complete RPMI-10 and vancomycin was added at 5 ug/mL immediately prior to infection. Peritoneal cells were added to the osteoblasts at 1×10^6 peritoneal cells/mL. A sample of the cells was lysed with 0.1% triton-x to determine the actual concentration of live intracellular bacteria at the time of infection. The actual titer for all infections was determined by plating serial dilutions of the bacteria on Tryptic Soy Agar with 5% defibrinated sheep blood.
MRSA (free bacteria) was seeded in media, media+vancomycin, or media+vancomycin and plated on a monolayer of MG63 osteoblasts (FIG. 1E) or Human Brain Microvascular Endothelial Cells (HBMEC, FIG. 1F). Plates were centrifuged to promote contact of the bacteria with the monolayer. At each time point, the culture supernatant was collected to recover extracellular bacteria or adherent cells were lysed to release intracellular bacteria.

S. aureus = experiment: Mouse intravenous infection with free vs intracellular S. aureus, vancomycin therapy; assay type: in vivo, Staphylococcus aureus; settings: mice, i.v. infection, vancomycin immediately after infection then once per day, 4 days post infection
Experimental: FIGS. 1A-1F: Intracellular stores of MRSA are protected from vancomycin in vivo and in vitro. […] Four cohorts of mice were infected by intravenous injection with roughly equivalent doses of viable free bacteria or intracellular bacteria and selected groups were treated with vancomycin immediately after infection and then once per day (see Example 2). FIG. 1B and FIG. 1C show bacterial loads in kidney and brain, respectively of infected mice 4 days post infection. The dashed line indicates the limit of detection for the assay. […] (ND=none detected). […] MRSA (free bacteria) was seeded in media, media+vancomycin, or media+vancomycin and plated on a monolayer of MG63 osteoblasts (FIG. 1E) or Human Brain Microvascular Endothelial Cells (HBMEC, FIG. 1F). Extracellular bacteria (free bacteria) grew well in media alone, but were killed by vancomycin. In wells containing a monolayer of mammalian cells (Intracellular+vanco) a fraction of the bacteria were protected from vancomycin during the first 8 hours after infection and were able to expand within the intracellular compartment over 24 hours. Error bars show standard deviation for triplicate wells.
These experiments compared the virulence of intracellular bacteria versus an equivalent dose of free-living planktonic bacteria, and determined whether the intracellular bacteria are able to establish infection in the presence of vancomycin in vivo. […]

MRSA strain USA300 = experiment: Flow cytometry binding of mAbs to USA300 bacteria; design: species or system Staphylococcus aureus; settings: MFI
Experimental: (§2) (FIGS. 5A-C) Bacteria were preopsonized with huIgG1 mAbs rF1 (squares), 4675 anti-ClfA (triangles), or anti-herpes virus gD (circles). (FIG. 5A): Binding of mAbs to WT (USA300-Aspa) bacteria was assessed by flow cytometry, and expressed as mean fluorescent intensity (MFI). (FIG. 5B): CFSE-labeled, preopsonized WT (USA300-Aspa) bacteria were incubated with human PMN. Bacterial uptake was expressed as % of CFSE-positive PMN, after gating for CD11b-positive cells by flow cytometry. (FIG. 5C): Preopsonized WT (USA300-Aspa) bacteria were incubated with PMN to assess bacterial killing. Numbers of viable CFU per mL are representative of at least three experiments.
(§3) Whole bacteria were harvested from TSA plates or TSB cultures and washed with HBSS without phenol red supplemented with 0.1% IgG free BSA (Sigma) and 10 mM Hepes, pH 7.4 (HB buffer) Bacteria (20×10^8 CFU/mL) were incubated with 300 μg/mL of rabbit IgG (Sigma) in HB buffer for 1 h at room temperature (RT) to block nonspecific IgG binding. Bacteria were stained with 2 μg/mL of primary antibodies, including rF1 or isotype control IgG1 mAb gD:5237 (Nakamura G R, et al. (1993) J Virol 67: 6179-6191), and next with fluorescent anti-human IgG secondary antibodies (Jackson Immunoresearch, West Grove, Pa.). The bacteria were washed and analyzed by FACSCalibur® (BD).

USA300 = experiment: Uptake and killing of preopsonized USA300 by human PMN; assay type: cell-based, Staphylococcus aureus
Experimental: as §2

15 S. aureus strains = experiment: FACS analysis of rF1 binding to S. aureus strains; design: species or system Staphylococcus aureus; settings: flow cytometry, all 15 strains tested
Experimental: as §3

[3] = tested on: USA300 derived from infected mouse kidneys, livers and lungs; experiment: FACS analysis of rF1 binding to USA300 from infected mouse tissues; design: species or system Staphylococcus aureus
Experimental: (§4) For antibody staining of bacteria from infected mouse tissues, 6-8 weeks old female C57Bl/6 mice (Charles River, Wilmington, Mass.) were injected intravenously with 10^8 CFU of logphase-grown USA300 in PBS. Mouse organs were harvested two days after infection. Rabbit infective endocarditis (IE) was established as described in Tattevin P, et al. (2010) Antimicrobial agents and chemotherapy 54: 610-613. Rabbits were injected intravenously with 5×10^7 CFU of stationary-phase grown MRSA strain COL, and heart vegetations were harvested eighteen hours later. Treatment with 30 mg/kg of vancomycin was given intravenously b.i.d. 18 h after infection with 7×10^7 CFU stationary-phase COL.
(§5) To lyse mouse or rabbit cells, tissues were homogenized in M tubes (Miltenyi, Auburn, Calif.) using a gentleMACS® cell dissociator (Miltenyi), followed by incubation for 10 min at RT in PBS containing 0.1% Triton-X100 (Thermo), 10 µg/mL of DNAseI (Roche) and Complete Mini protease inhibitor cocktail (Roche). The suspensions were passed through a 40 micron filter (BD) and bacteria were stained with mAbs as described above. […] During flow cytometry analysis, bacteria were gated for positive staining with mAb 702 from double fluorescence plots. […]

[4] = tested on: MRSA COL bacteria from heart vegetations; experiment: FACS analysis of rF1 binding to bacteria from rabbit infective endocarditis heart vegetations; design: species or system Staphylococcus aureus; settings: rabbit model of infectious endocarditis
Experimental: as §4, §5

S. epidermidis = experiment: FACS analysis of rF1 binding to S. epidermidis; design: species or system Staphylococcus epidermidis; settings: flow cytometry
Experimental: as §3

[5] = tested on: S. saprophyticus, S. lugdunensis, S. simulans, S. carnosus, Streptococcus pyogenes, Bacillus subtilis, Enterococcus faecalis, Listeria monocytogenes; experiment: FACS analysis of rF1 binding to other staphylococcal and Gram-positive species; settings: flow cytometry
Experimental: as §3

Row | Molecule | MIC [1] [µg/mL] | MIC ([2]; Staphylococcus aureus, MRSA, 24 h, read-out: Intracellular MRSA MIC) [µg/mL] | killing of MRSA sequestered inside macrophages ([2]; clinically achievable concentrations of the antibiotics) | survival of intracellular MRSA in the leukocytes (MRSA; MRSA sequestered inside peritoneal cells, vancomycin, identical conditions) | killing of planktonic bacteria (MRSA; planktonic bacteria exposed to vancomycin alone, 5 ug/mL, one day in culture) | surviving bacteria associated with MG63 cells (% of input) (MRSA; planktonic bacteria plated on MG63 osteoblasts, vancomycin, one day after infection) | establishment of infection in kidney and brain under vancomycin therapy (S. aureus) | maximum binding relative to isotype-matched anti-ClfA mAb (MRSA strain USA300) | viability of USA300 in the absence of PMN (USA300; no PMN) | bacterial killing by PMN (viability) (USA300; preopsonized USA300, human PMN) | bacterial uptake by PMN (USA300; preopsonized USA300, human PMN) | binding to S. aureus strains (15 S. aureus strains) | binding to USA300 from infected mouse tissues ([3]; kidneys, livers and lungs after systemic infection) | duration of sustained binding to USA300 from mouse kidneys after infection ([3]; mouse kidneys) | binding to MRSA COL from rabbit heart vegetations [4] | binding to S. epidermidis (S. epidermidis) | binding to other staphylococcal and Gram-positive species [5]
1 | CN[C@H](CC(C)C)C(=O)N[C@H]1C(=O)N[C@@H](CC(N)=O)C(=O)N[C@H]2C(=O)N[C@H]3C(=O)N[C@H](C(=O)N[C@H](C(=O)O)c4cc(O)cc(O)c4-c4cc3ccc4O)[C@H](O)c3ccc(c(Cl)c3)Oc3cc2cc(c3O[C@@H]2O[C@H](CO)[C@@H](O)[C@H](O)[C@H]2O[C@H]2C[C@](C)(N)[C@H](O)[C@H](C)O2)Oc2ccc(cc2Cl)[C@H]1O [Vancomycin] | 1 (≈ 0.69 µM) | > 100 | failed to kill | About 15% | efficiently killed | approximately 0.06% | intracellular bacteria, but not planktonic bacteria, were able to establish infection |  |  |  |  |  |  |  |  |  | 
2 | rF1: recombinantly produced F1, fully human IgG1 anti-SDR monoclonal antibody binding S. aureus and S. epidermidis (antibody, V domains shown) VH: EVQLVESGGGLVQPGGSLRLSCAASGFTLSRFAMSWVRQAPGRGLEWVASINNGNNPYYARSVQYRFTVSRDVSQNTVSLQMNNLRAEDSATYFCAKDHPSSGWPTFDSWGPGTLVTVSS VL: DIQLTQSPSALPASVGDRVSITCRASENVGDWLAWYRQKPGKAPNLLIYKTSILESGVPSRFSGSGSGTEFTLTISSLQPDDFATYYCQHYMRFPYTFGQGTKVEIKRTV |  |  |  |  |  |  |  | approximately 10 fold | did not affect viability | potent killing | increased uptake | potent binding activity | strongly bound | at least 8 days | strongly bound | detectable | did not bind
